For the assay, the target named is 92UG037.8-gp140-Fd (HIV-1 primary isolate 92UG037.8 (clade A)). As to the kind of experiment: surface plasmon resonance. On the technique in general: SPR reads the build-up and loss of mass on a sensor chip optically.

One may read the Kd as the free concentration of one partner at which half of the binding sites on the other are occupied at equilibrium, for simple one-to-one binding. A lower Kd goes with higher affinity.

The substance monoclonal antibody (mAb) 2G12 yielded a Kd of 0.0179 µM.
